Reference: the Immune Epitope Database (IEDB)
Values belong to the sequence of their own block, whether it stands above or below them.

Tests used:
HLA-A*01:01 = test: IEDB peptide-MHC binding, purified MHC/direct/fluorescence; filed as Kd, often an IC50 or EC50 that approximates it; ≥ and ≤ were set here for values at or beyond the usual limits of such assays
HLA-A*02:01 = test: as above
HLA-A*03:01 = test: as above
HLA-A*11:01 = test: as above
HLA-A*24:02 = test: as above; conditions: source organism: Influenza A virus (A/duck/Mongolia/47/2001(H7N1))
HLA-A*26:01 = test: as above
HLA-A*31:01 = test: as above
HLA-B*07:02 = test: as above
HLA-B*08:01 = test: as above
HLA-B*15:01 = test: as above
HLA-B*18:01 = test: as above; conditions: source organism: Influenza A virus (A/duck/Mongolia/47/2001(H7N1))
HLA-B*27:05 = test: as above
HLA-B*39:01 = test: as above; conditions: source organism: Influenza A virus (A/duck/Mongolia/47/2001(H7N1))
HLA-B*40:01 = test: as above
HLA-B*44:02 = test: as above
HLA-B*46:01 = test: as above; conditions: source organism: Influenza A virus (A/duck/Mongolia/47/2001(H7N1))
HLA-B*58:01 [1] = test: as above
HLA-A*69:01 = test: as above
HLA-A*02:50 = test: IEDB peptide-MHC binding, purified MHC/competitive/fluorescence; filed as Kd, often an IC50 or EC50 that approximates it; ≥ and ≤ were set here for values at or beyond the usual limits of such assays
HLA-A*24:03 = test: IEDB peptide-MHC binding, purified MHC/direct/fluorescence; filed as Kd, often an IC50 or EC50 that approximates it; ≥ and ≤ were set here for values at or beyond the usual limits of such assays
HLA-A*30:01 = test: as above; conditions: source organism: Giardia lamblia ATCC 50803
HLA-B*35:01 = test: as above
HLA-B*58:01 [2] = test: IEDB peptide-MHC binding, purified MHC/competitive/radioactivity; filed as Kd, often an IC50 or EC50 that approximates it; ≥ and ≤ were set here for values at or beyond the usual limits of such assays
HLA-B*51:01 = test: IEDB peptide-MHC binding, purified MHC/direct/fluorescence; filed as Kd, often an IC50 or EC50 that approximates it; ≥ and ≤ were set here for values at or beyond the usual limits of such assays; conditions: source organism: Tetraodon nigroviridis
HLA-B*57:01 = test: IEDB peptide-MHC binding, purified MHC/competitive/radioactivity; filed as Kd, often an IC50 or EC50 that approximates it; ≥ and ≤ were set here for values at or beyond the usual limits of such assays
[3] = source organism: Influenza A virus (A/duck/Mongolia/47/2001(H7N1))
[4] = source organism: Yersinia pestis
[5] = source organism: Camelpox virus M-96
[6] = source organism: Giardia lamblia ATCC 50803
[7] = source organism: Brucella melitensis
[8] = source organism: Vibrio parahaemolyticus
[9] = source organism: Salmonella enterica
[10] = source organism: Dengue virus 1 Brazil/97-11/1997
[11] = source organism: Rickettsia typhi
[12] = source organism: Dengue virus 2 Peru/IQT2913/1996

Sequence: THFQRKRRV
Kd (HLA-A*01:01; [3]): ≥ 20 µM | Kd (HLA-A*02:01; [3]): ≥ 20 µM | Kd (HLA-A*03:01; [3]): ≥ 20 µM | Kd (HLA-A*11:01; [3]): ≥ 20 µM | Kd (HLA-A*24:02): ≥ 20 µM | Kd (HLA-A*26:01; source organism: Influenza A virus(A/swine/Henan/3/2004(H9N2))): ≥ 20 µM | Kd (HLA-A*31:01; [3]): ≥ 20 µM | Kd (HLA-B*07:02; [3]): ≥ 20 µM | Kd (HLA-B*08:01; [3]): ≥ 20 µM | Kd (HLA-B*15:01; [3]): ≥ 20 µM | Kd (HLA-B*18:01): ≥ 20 µM | Kd (HLA-B*27:05; [3]): ≥ 20 µM | Kd (HLA-B*39:01): ≥ 20 µM | Kd (HLA-B*40:01; [3]): ≥ 20 µM | Kd (HLA-B*44:02; [3]): ≥ 20 µM | Kd (HLA-B*46:01): ≥ 20 µM | Kd (HLA-B*58:01 [1]; [3]): ≥ 20 µM

Sequence: GMFIIFIPI
Kd (HLA-A*02:01; [4]): 8.84 µM | Kd (HLA-A*69:01; [4]): 5.42 µM | Kd (HLA-A*02:50; source organism: Yersinia pestis Nepal516): 0.395 µM

Sequence: VMCIQMKYV
Kd (HLA-A*01:01; [5]): ≥ 20 µM | Kd (HLA-A*02:01; [5]): ≥ 20 µM | Kd (HLA-A*03:01; [5]): ≥ 20 µM | Kd (HLA-A*11:01; [5]): ≥ 20 µM | Kd (HLA-A*24:03; [5]): ≥ 20 µM | Kd (HLA-A*26:01; [5]): ≥ 20 µM | Kd (HLA-A*31:01; [5]): ≥ 20 µM | Kd (HLA-B*07:02; [5]): ≥ 20 µM | Kd (HLA-B*08:01; [5]): ≥ 20 µM | Kd (HLA-B*15:01; [5]): ≥ 20 µM | Kd (HLA-B*27:05; [5]): ≥ 20 µM | Kd (HLA-B*40:01; [5]): ≥ 20 µM | Kd (HLA-B*44:02; [5]): ≥ 20 µM | Kd (HLA-B*58:01 [1]; [5]): ≥ 20 µM | Kd (HLA-A*02:50; source organism: Variola virus): 0.0181 µM

Sequence: SVKERGPAY
Kd (HLA-A*01:01; [6]): ≥ 20 µM | Kd (HLA-A*02:01; [6]): ≥ 20 µM | Kd (HLA-A*03:01; [6]): 0.61 µM | Kd (HLA-A*11:01; [6]): 0.105 µM | Kd (HLA-A*26:01; [6]): 0.0246 µM | Kd (HLA-A*30:01): 0.0354 µM | Kd (HLA-A*31:01; [6]): ≥ 20 µM | Kd (HLA-A*69:01; [6]): ≥ 20 µM | Kd (HLA-B*07:02; [6]): ≥ 20 µM | Kd (HLA-B*08:01; [6]): ≥ 20 µM | Kd (HLA-B*15:01; [6]): 0.179 µM | Kd (HLA-B*27:05; [6]): ≥ 20 µM | Kd (HLA-B*35:01; [6]): 0.0394 µM | Kd (HLA-B*40:01; [6]): ≥ 20 µM | Kd (HLA-B*44:02; [6]): ≥ 20 µM | Kd (HLA-B*58:01 [1]; [6]): ≥ 20 µM

Sequence: LAIPVTMTL
Kd (HLA-B*58:01 [2]; source organism: Dengue virus 4 Philippines/H241/1956): 0.00134 µM

Sequence: ALFEDYPGC
Kd (HLA-A*01:01; [7]): ≥ 20 µM | Kd (HLA-A*02:01; [7]): 0.354 µM | Kd (HLA-A*03:01; [7]): ≥ 20 µM | Kd (HLA-A*11:01; [7]): ≥ 20 µM | Kd (HLA-A*24:03; [7]): ≥ 20 µM | Kd (HLA-A*26:01; [7]): ≥ 20 µM | Kd (HLA-A*31:01; [7]): ≥ 20 µM | Kd (HLA-A*69:01; [7]): ≥ 20 µM | Kd (HLA-B*07:02; [7]): ≥ 20 µM | Kd (HLA-B*08:01; [7]): ≥ 20 µM | Kd (HLA-B*15:01; [7]): ≥ 20 µM | Kd (HLA-B*27:05; [7]): ≥ 20 µM | Kd (HLA-B*40:01; [7]): ≥ 20 µM | Kd (HLA-B*44:02; [7]): ≥ 20 µM | Kd (HLA-B*58:01 [1]; [7]): ≥ 20 µM | Kd (HLA-A*02:50; [7]): 0.0062 µM

Kd (HLA-A*02:01; source organism: Escherichia coli O157:H7): 1.01 µM | Kd (HLA-A*02:50; source organism: Escherichia coli O157:H7 str. Sakai): 0.0004 µM
Sequence: WMDMWESPM

Sequence: MSSAMSMMH
Kd (HLA-A*01:01; [8]): 6.94 µM | Kd (HLA-A*02:01; [8]): ≥ 20 µM | Kd (HLA-A*03:01; [8]): 0.0661 µM | Kd (HLA-A*11:01; [8]): 0.154 µM | Kd (HLA-A*24:03; [8]): 5.11 µM | Kd (HLA-A*26:01; [8]): ≥ 20 µM | Kd (HLA-A*69:01; [8]): ≥ 20 µM | Kd (HLA-B*07:02; [8]): ≥ 20 µM | Kd (HLA-B*08:01; [8]): ≥ 20 µM | Kd (HLA-B*15:01; [8]): 2.58 µM | Kd (HLA-B*27:05; [8]): ≥ 20 µM | Kd (HLA-B*35:01; [8]): 0.0728 µM | Kd (HLA-B*40:01; [8]): ≥ 20 µM | Kd (HLA-B*44:02; [8]): ≥ 20 µM | Kd (HLA-B*58:01 [1]; [8]): 0.624 µM

Sequence: LGSQEGAMHT
Kd (HLA-B*58:01 [2]; source organism: Dengue virus 2 Jamaica/1409/1983): 0.548 µM

Sequence: ATGDYVAFV
Kd (HLA-A*02:01; [9]): 0.067 µM | Kd (HLA-A*69:01; [9]): 0.0158 µM | Kd (HLA-A*02:50; source organism: Salmonella enterica subsp. enterica serovar Typhi): 0.0009 µM

Kd (HLA-B*51:01): 11.3 µM
Sequence: LPAQGLIEF

Sequence: ATLFVWYFW
Kd (HLA-B*57:01; [10]): 0.115 µM | Kd (HLA-B*58:01 [2]; [10]): 0.2 µM

Sequence: APILVVSGI
Kd (HLA-A*01:01; [11]): ≥ 20 µM | Kd (HLA-A*02:01; [11]): ≥ 20 µM | Kd (HLA-A*03:01; [11]): ≥ 20 µM | Kd (HLA-A*11:01; [11]): ≥ 20 µM | Kd (HLA-A*24:03; [11]): 14.8 µM | Kd (HLA-A*26:01; [11]): ≥ 20 µM | Kd (HLA-A*31:01; [11]): ≥ 20 µM | Kd (HLA-A*69:01; [11]): ≥ 20 µM | Kd (HLA-B*07:02; [11]): 0.157 µM | Kd (HLA-B*08:01; [11]): ≥ 20 µM | Kd (HLA-B*15:01; [11]): ≥ 20 µM | Kd (HLA-B*27:05; [11]): ≥ 20 µM | Kd (HLA-B*35:01; [11]): 0.289 µM | Kd (HLA-B*40:01; [11]): ≥ 20 µM | Kd (HLA-B*44:02; [11]): ≥ 20 µM | Kd (HLA-B*58:01 [1]; [11]): ≥ 20 µM

Sequence: LTSKELMMTT
Kd (HLA-B*57:01; [12]): 0.246 µM | Kd (HLA-B*58:01 [2]; [12]): 0.422 µM
